We go through one substance from article PMC6504948.

In this test the target is CD19 on CD19-positive tumor cells (Nalm6, Raji) (human (endogenous in Nalm6 and Raji)) (UniProt P15391).
Chain of UniProt P15391 (P15391 20-556): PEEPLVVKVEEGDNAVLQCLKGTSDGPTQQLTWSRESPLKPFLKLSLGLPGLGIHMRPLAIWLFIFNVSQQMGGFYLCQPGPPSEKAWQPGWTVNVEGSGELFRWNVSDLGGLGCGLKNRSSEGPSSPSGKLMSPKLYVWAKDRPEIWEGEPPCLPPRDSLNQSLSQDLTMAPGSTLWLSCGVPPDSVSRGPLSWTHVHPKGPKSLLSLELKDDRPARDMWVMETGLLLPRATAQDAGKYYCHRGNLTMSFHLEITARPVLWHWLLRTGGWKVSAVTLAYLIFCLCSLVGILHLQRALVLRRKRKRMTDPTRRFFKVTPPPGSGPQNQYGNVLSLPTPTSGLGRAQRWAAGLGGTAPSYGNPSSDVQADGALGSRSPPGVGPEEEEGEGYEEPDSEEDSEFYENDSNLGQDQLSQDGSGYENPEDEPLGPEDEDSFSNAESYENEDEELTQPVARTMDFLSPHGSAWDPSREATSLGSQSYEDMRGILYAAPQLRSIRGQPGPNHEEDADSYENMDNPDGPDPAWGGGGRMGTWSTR

As to “γ-TRuC (CD19-specific T cell receptor fusion construct: FMC63 scFv fused to full-length human CD3γ) (from UniProt P09693 23-182)”, the conversion of transduced primary T cells into a CD69+/CD25+ phenotype after overnight co-culture with Nalm6 cells turned out to be 50%.
